Laboratory results reported in the PETadex activity labels (doi:10.1016/j.ijbiomac.2024.137732).

Legend:
gfPET [1] = assay: Proxy for plastic degradation [Released monomer concentration (HPLC/LC-MS) (MHET+BHET+TPA)]; conditions: pH 9
gfPET [2] = assay: Proxy for plastic degradation [Released monomer concentration (HPLC/LC-MS) (TPA+MHET+BHET)]

B1: unnamed (protein)
chain: QELQEDWWRTGKYAIEDIADPVYSLDEEYMRDTPNLYLPKGKTGKLPVVIVIHGWGGTKEQMQPTAQLLASHGMLVLNYTAVDQNQPFQWLDGLVAAYTLLEGENRRPGSKIYNRVDFQRIGLLGHSMGAAGVLHIAAMEKPNGLRGKIKTVVSMMPYHGTTSTFTDNIAGGKDKLGCDISSTPNATLIISAELDPTNEPIGGYEFYQTLKRNKRVFFSLKGAKHIDWMKERDKKYSVAMPVITAWMLTYLCGETQYESYFREGGHYFEKWVRETLKGNVKVGRGEFPAFEIKEP
gfPET [1]
  Proxy for plastic degradation: 4 µM

B2: unnamed (protein)
chain: NADQFVQFESAAVKPTQFQERNARARGEAVNAVPGTPLQGYLTRPQGEGPFPAIVILHGCAGIHPSVKETWPERLASWGYVVLVVDSFSTRGIQNTCNNLLVDRVYDAYGALEFLSNYSFVDPKRIAVMGFSAGGIATLEAVQFGGAERLMEHKFKAAVAYYPICKAANGDMAVPTLVLVGDLDDWSPAEQCRTMMKQRSGAGSPVQLNVYKGAHHAFDAPEFKTGFEAYGHWIEYNGIAADQSVSDVHAFLRGVFGN
gfPET [1]
  Proxy for plastic degradation: 3.8 µM

B3: unnamed (protein)
chain: ASEQSTKNITNVTTESDVSVYRDLMLVAGKYVFYPADFETTTKKYPVVTWANGSWCPIQTYLPIIYGLVKAGYIVVADTDLLTDDGKSTVDSVSYIIKQNKNKNSMFYKRINTKQIGSTGHSLGGQAAVNASAKDSRIKAIVSLAGKSVADEAAKVTVPALYLSGTLDMIVPSKDYVYPSYKASKGPAAYASFNNMVHFGVWIAPGNYVKYTVAWFDVYLKGDKSKLSMFKKGGDLSTDDFWINYESKNL
gfPET [2]; pH 6
  Proxy for plastic degradation: 2.5 µM
gfPET [2]; pH 7
  Proxy for plastic degradation: 5 µM
gfPET [2]; pH 8
  Proxy for plastic degradation: 10 µM
gfPET [2]; pH 9
  Proxy for plastic degradation: 15 µM
gfPET [2]; pH 9, 25 °C
  Proxy for plastic degradation: 4 µM
gfPET [2]; pH 9, 30 °C
  Proxy for plastic degradation: 6.5 µM
gfPET [2]; pH 9, 35 °C
  Proxy for plastic degradation: 12 µM
gfPET [2]; pH 9, 37 °C
  Proxy for plastic degradation: 16 µM
gfPET [2]; pH 9, 40 °C
  Proxy for plastic degradation: 20 µM
gfPET [2]; pH 9, 45 °C
  Proxy for plastic degradation: 11 µM
gfPET [2]; pH 10
  Proxy for plastic degradation: 25 µM
gfPET [2]; pH 11
  Proxy for plastic degradation: 50 µM
gfPET [1]
  Proxy for plastic degradation: 17.5 µM

B4: unnamed (protein)
chain: QTIEMAQSQIDKLAKIETDSLASYADSYTYDEEYFAENEPATIYYPKNLEGKVPAVIVVHGFNCKQKFLQKIPQHLSSHGFICITYTALDQKRPFQWPPGLMAAYEILRGESMRPDSPIYDHVDLDAVALVGHSMGGAGVLHTAMMPYPNGLRGKIKTVVGLNPYNGGPLMAEVGGGANDNLGDDLSHLDIPTMIVTGSYDIVAFPWKSFAFYNSLRGPAKHAFLSIDRMDHADWYFIPSEPKYPILRAILYSWLRAYLADDSEYRDYFVDRPGSSFDKYLKPLLSNTPNPLTRGGESFPPYVLSEEEDPLGTTN
gfPET [1]
  Proxy for plastic degradation: 2.4 µM

B5: unnamed (protein)
chain: QELQENWWSNGKYAIEDVADPVYSFDEEYMKDVPNIYLPIGKTGKLPVVIVVHGWAAYKEQMHDTAQLLASHGMLVLVYTAMDQNQPFQWLDGIIAAYTLLEGENRRPGSKIHNRVDFQRIGLLGHSMGGTGVLFSAAMEKPNGLRGKIKTVVSLMPYHGTTNFISDAVAGGKDKLGCDVSATPNATLIISGEVDEVNEPIGGYEFYQTLTQNKRVFFSMKGTHHNDWRNKEGKESENYPIVMPVVSSWMLAYLCGERQYESFFKEGGLYFEKWIRPTLKGNVKVGRGEFPAFEIKEP
gfPET [1]
  Proxy for plastic degradation: 4 µM
